US6344321, “Nucleic acid ligands which bind to hepatocyte growth factor/scatter factor (HGF/SF) or its receptor c-met” (Gilead Sciences, Inc.)
Substitutions are numbered along the chain they refer to.

B1: 11-224 (ssRNA)
RNA: GGGAGGACGAUGCGGACAGCGGCGACUAGCCUGUUCAUGCCUGCCCAGACGACUCGCCCGA
modifications: 2'-F pyrimidines
B2: 10-7 (ssRNA)
RNA: GGGAGAUAAGAAUAAACGCUCAAUGCCUUAAGAGCGGAACUCCCUGACCCACCUUCGACAGGAGGCUCACAACAGGC
modifications: 2'-F pyrimidines
B3: 10-76 (ssRNA)
RNA: GGGAGAUAAGAAUAAACGCUCAAAGUUAGGCUUUAAAGCACGAUAAUCAGCAUUCGACAGGAGGCUCACAACAGGC
modifications: 2'-F pyrimidines
B4: 10-47 (ssRNA)
RNA: GGGAGAUAAGAAUAAACGCUCAAGUCAAGAGGAAAUGACACGGCUCCACUUUUAUUCGACAGGAGGCUCACAACAGGC
modifications: 2'-F pyrimidines
B5: 10-40 (ssRNA)
RNA: GGGAGAUAAGAAUAAACGCUCAAUGUCGUUAGUUUAUUGACAAGGCCCGAAGUUCGACAGGAGGCUCACAACAGGC
modifications: 2'-F pyrimidines
B6: 11-107 (ssRNA)
RNA: GGGAGGACGAUGCGGGUUCUGUGUGUCCACGUUCUUACCCCUGUGCAGACGACUCGCCCGA
modifications: 2'-F pyrimidines
B7: 10-8 (ssRNA)
RNA: GGGAGAUAAGAAUAAACGCUCAAUUGACAAGGUACCUGUUGCCUGGCGUUUCUUUCGACAGGAGGCUCACAACAGGC
modifications: 2'-F pyrimidines
B8: 10-28 (ssRNA)
RNA: GGGAGAUAAGAAUAAACGCUCAACCUGUUCUGAACGCAAAAUGGCGUGGUGGCUUCGACAGGAGGCUCACAACAGGC
modifications: 2'-F pyrimidines
B9: 11-203 (ssRNA)
RNA: GGGAGGACGAUGCGGGGUUUUUCUUUUCUUGUUCUCUUCUUUCCCCCAGACGACUCGCCCGA
modifications: 2'-F pyrimidines
B10: 8-160 (ssRNA)
RNA: GGGAGGACGAUGCGGGUCCCCGAAUUUAAAGUGCGUUUUCCUCCGGGCAGACGACUCGCCCGA
modifications: 2'-F pyrimidines
B11: 10-3 (ssRNA)
RNA: GGGAGAUAAGAAUAAACGCUCAAGCCUGAGUUAAACAUGACGGGUUUUGUGACCCCUUUCGACAGGAGGCUCACAACAGGC
modifications: 2'-F pyrimidines
B12: 8-203 (ssRNA)
RNA: GGGAGGACGAUGCGGCGCGAGCCUAUUUAUGUCAUCAUGUCUGUGCAGACGACUCGCCCGA
modifications: 2'-F pyrimidines
B13: 8-215 (ssRNA)
RNA: B12 RNA with C18U, U44G, G45U
modifications: 2'-F pyrimidines
B14: 10-2 (ssRNA)
RNA: GGGAGAUAAGAAUAAACGCUCAAGCCUGAGUUAAACAUGACGGUUUGUGACCCUUCGACAGGAGGCUCACAACAGGC
modifications: 2'-F pyrimidines
B15: 10-23 (ssRNA)
RNA: B14 RNA with C25U, A33G, A34G, U38C, G39A, G43C, U44A, U48A
modifications: 2'-F pyrimidines
B16: 10-72 (ssRNA)
RNA: GGGAGAUAAGAAUAAACGCUCAAUGUGGCACUGUUGUCCACAAGGGCCUCAUUCGACAGGAGGCUCACAACAGGC
modifications: 2'-F pyrimidines
B17: 10-52 (ssRNA)
RNA: GGGAGAUAAGAAUAAACGCUCAAUCUUAUUGUGUCCAGCUUCUCCCUGCAGGCUUCGACAGGAGGCUCACAACAGGC
modifications: 2'-F pyrimidines
B18: 10-37 (ssRNA)
RNA: GGGAGAUAAGAAUAAACGCUCAAGUCUGAGUCCGUAGGGCGAUUUGUGUCCCUUCGACAGGAGGCUCACAACAGGC
modifications: 2'-F pyrimidines

Target: HGF (hepatocyte growth factor/scatter factor) (UniProt P14210;P14210 P14210:32-494,P14210:495-728)
Test: filter; HBSMC, 37C
Conditions: tags: R&D Systems
Procedure: In binding reactions, RNA concentrations were kept as low as possible—between 1 and 20 pM—to ensure equilibrium in conditions of protein excess. Oligonucleotides were incubated for 15 minutes at 37° C. with varying amounts of the protein in 43 µl of the binding buffer. Thirty-two microliters of each binding mixture placed on pre-wet 0.45 µm nitrocellulose filters under suction. Each well was immediately washed with 0.5 ml binding buffer. The amount of radioactivity retained on the filters was quantitated by imaging. The radioactivity that bound to filters in the absence of protein was used for background correction. The percentage of input oligonucleotide retained on each filter spot was plotted against the corresponding log protein concentration. The nonlinear least square method was used to obtain the dissociation constant (K_d; reference Jellinek, Lynott et al. 1993, Proc. Natl. Acad. Sci. USA. 90:11227–31).

HGF (hepatocyte growth factor/scatter factor), sequence (P14210 32-494, chain 1 of 2): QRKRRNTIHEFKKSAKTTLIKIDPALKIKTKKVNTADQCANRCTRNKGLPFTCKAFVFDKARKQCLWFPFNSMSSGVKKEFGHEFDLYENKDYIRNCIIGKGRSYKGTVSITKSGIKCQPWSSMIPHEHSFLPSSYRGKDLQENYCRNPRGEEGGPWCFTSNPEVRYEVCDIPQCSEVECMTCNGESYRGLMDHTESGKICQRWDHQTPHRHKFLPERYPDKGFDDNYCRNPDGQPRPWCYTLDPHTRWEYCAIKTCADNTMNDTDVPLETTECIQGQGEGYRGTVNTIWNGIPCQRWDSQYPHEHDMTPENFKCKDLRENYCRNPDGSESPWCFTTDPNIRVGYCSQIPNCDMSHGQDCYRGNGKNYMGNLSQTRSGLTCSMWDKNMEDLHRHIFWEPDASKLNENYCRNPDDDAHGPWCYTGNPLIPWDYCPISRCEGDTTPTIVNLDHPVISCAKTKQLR
HGF (hepatocyte growth factor/scatter factor), sequence (P14210 495-728, chain 2 of 2): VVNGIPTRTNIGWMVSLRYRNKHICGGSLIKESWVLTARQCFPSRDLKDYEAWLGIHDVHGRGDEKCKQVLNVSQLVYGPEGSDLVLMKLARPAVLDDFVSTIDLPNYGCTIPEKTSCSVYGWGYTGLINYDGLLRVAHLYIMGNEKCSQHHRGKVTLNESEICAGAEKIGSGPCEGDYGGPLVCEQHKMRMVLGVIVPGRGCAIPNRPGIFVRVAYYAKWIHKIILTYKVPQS

Binder | Kd
B1 | 0.11 nM
B2 | 1.45 nM
B3 | 0.17 nM
B4 | 0.39 nM
B5 | 0.35 nM
B6 | 0.14 nM
B7 | 0.92 nM
B8 | 0.86 nM
B9 | 0.26 nM
B10 | 0.15 nM
B11 | 0.072 nM
B12 | 0.14 nM
B13 | 0.077 nM
B14 | 0.069 nM
B15 | 0.33 nM
B16 | 0.45 nM
B17 | 0.16 nM
B18 | 3.05 nM
